{
  "source": "patent US20240317884A1",
  "about": "“METHOD FOR ALLOWING IMMUNE CELLS INFILTRATION IN TUMORS” (Alethia Biotherapeutics Inc., priority 2021, published 2024)",
  "molecules": {"B1": {"name": "murine 16B5: murine anti-clusterin 16B5 antibody used in mouse studies; VL SEQ ID NO:7, VH SEQ ID NO:8 (antibody, V domains shown)", "VH": "EVQLQQSGAELVKPGASVRLSCTTSGFNIKDIYMHWVKQRPEQGLEWIGRIDPAYGNTKYDPKFQGKATITADTSSNTAYLQLSSLTSEDTAVYYCARRYDTAMDYWGQGTSVTVSS", "VL": "DIVMSQSPSSLAVSAGEKVTMSCKSSQSLLNSRTRKNYLAWYQQKPGQSPKLLIYWASTRESGVPDRFTGSGSGTDFTLTISSVQAEDLAVYYCKQSYNLWTFGGGTKLEFK", "modifications": "Murine 16B5 VH; Murine 16B5 VL"}},
  "key": {"[1]": {"tested_on": "4T1 mouse mammary carcinoma cells", "assay": "4T1 model: count of metastatic lung nodules", "assay_type": "in vivo, Balb/c mice", "details": "Balb/c, treatment for 5 weeks (docetaxel 10 mg/kg IP 1X/week; AB-16B5 10 mg/kg IP 2X/week), vs saline control", "method": "(§1) Five groups, each consisting of 10 female Balb/c mice were assigned to this study (see Table 5 below). All animals received subcutaneous implantation of 4T1 mouse mammary carcinoma cells in the 4th inguinal mammary gland. Treatment was initiated on the day of implantation (defined as Day 1). Animals from Group 1 (Gr. 1) received IP treatment of saline vehicle control twice a week for the duration of the study. Animals from Group 2 (Gr. 2) received 10 mg/kg of docetaxel weekly for five weeks by IP administration. Animals from Group 3 (Gr. 3) received 10 mg/kg of docetaxel weekly for two weeks and 10 mg/kg of AB-16B5, twice weekly for five weeks. Animals from Group 4 (Gr. 4) received 10 mg/kg of docetaxel weekly and 5 mg/kg of 16B5 twice weekly each over the course of a five weeks treatment. Animals from Group 5 (Gr. 5) received AB-16B5 twice weekly for five weeks. On Day 36, the primary tumors were excised and on Day 37, the animals were sacrificed and the number of grossly visible metastatic nodules on the surface of the lungs was counted."}, "4T1 primary tumors": {"tested_on": "4T1 primary tumors", "assay": "4T1 model: CD45+ immune cells in primary tumors", "assay_type": "in vivo, Balb/c mice", "details": "Balb/c, 5-week regimens (Groups 2, 4, 5), primary tumors excised at Day 16", "method": "as §1\nThe primary tumors excised at Day 16 post implantation, were processed with collagenase and hyaluronidase and immune cells were purified by positive selection using magnetic latex beads coated with an anti-CD45 antibody. […]"}, "4T1 lung metastases": {"tested_on": "4T1 lung metastases", "assay": "4T1 model: immunohistochemistry of lung metastases", "assay_type": "in vivo", "details": "Balb/c mice, orthotopic 4T1; 10 mg/kg IP thrice a week; Day 36", "source_text": "Balb/c mice were orthotopically implanted with 5×10^5 4T1 cells in the 4th mammary fat pad. Animals received IP saline treatment thrice weekly. The primary tumor was surgically removed at Day 16 post-implantation. The animals were sacrificed at Day 36 and the lungs were excised. Tissues were fixed in paraformaldehyde and processed for paraffin embedding. Tissue sections were probed with anti-mouse CD3, anti-mouse CD8 and anti-mouse B220 antibodies. […] Results presented in FIG. 1 indicate that the 4T1 lung metastases create an immune cold microenvironment which prevents the infiltration of B and T lymphocytes in tumors. Delineated regions indicate that CD3 and CD8 T lymphocytes are restricted in the tumor margin as a consequence of EMT.\nAnimals bearing 4T1 tumors were treated with the AB-16B5 antibody (murine 16B5) thrice a week IP at 10 mg/kg. The primary tumor was surgically removed at Day 16 post-implantation. The animals were sacrificed at Day 36 and the lungs were excised. Tissues were fixed in paraformaldehyde and processed for paraffin embedding. Tissue sections were probed with anti-mouse CD3, anti-mouse CD8 and anti-mouse B220 antibodies."}, "4T1 tumor cells": {"tested_on": "4T1 tumor cells", "assay": "INFγ secretion of tumor infiltrating lymphocyte cultures co-cultured with 4T1 cells (ELISA)", "assay_type": "cell-based, Balb/c mice", "details": "100,000 lymphocytes from lung metastatic nodules with 100,000 4T1 cells overnight, individual animals, AB-16B5 10 mg/kg IP twice weekly ± docetaxel 10 mg/kg IP weekly", "method": "Balb/c mice were orthotopically implanted with 5×10^5 4T1 cells in the 4th mammary fat pad. Animals received intraperitoneal (IP) AB-16B5 (murine 16B5) 10 mg/kg twice weekly in combination with IP docetaxel 10 mg/kg weekly (Group 15: animals 1501, 1502 and 1503) or IP AB-16B5 10 mg/kg twice weekly (Group 25: […]). The primary tumor was surgically removed at Day 16 post-implantation. The animals were sacrificed at Day 36 and the lungs were excised and each visible lung metastasis was carefully dissected. Each visible metastatic nodule, if any, was excised and processed for a rapid expansion of tumor infiltrating lymphocyte protocol. The metastatic nodules were sectioned into small pieces of 2-3 mm edge that were individually grown in 24 well plates containing culture medium supplemented with FBS, IL2, IL7, ITS (1,000 U/mL IL2, 2.0 ng/mL IL7 and 1× insulin-transferrin-selenium cocktail (Gibco 41400-045)).\nAfter three weeks in culture, 100,000 cells were taken from each of the lymphocyte cultures (six cultures corresponding to three animals from Group 15 and three animals from Group 25) and placed in culture with 100,000 4T1 tumor cells. After overnight co-culture, the supernatant was recovered for INFγ quantification by ELISA."}},
  "note": "Where “and” joins values, the source holds several entries; their conditions need not be identical. Equal values may be shown once. Entries after “also recorded” stand apart in the source; their conditions may differ.",
  "data": [
    {"molecule": "CC(=O)O[C@@]12CO[C@@H]1C[C@H](O)[C@@]1(C)C(=O)[C@H](O)C3=C(C)[C@@H](OC(=O)[C@H](O)[C@@H](NC(=O)OC(C)(C)C)c4ccccc4)C[C@@](O)([C@@H](OC(=O)c4ccccc4)[C@H]21)C3(C)C", "note": "[docetaxel]", "values": [
      {"measurement": "metastatic lung nodules / therapeutic effect on lung metastases", "setting": "[1]", "result": "as many metastatic lung nodules as the saline control group; also recorded: relatively ineffective"},
      {"measurement": "CD45+ immune cells in primary tumors", "setting": "4T1 primary tumors", "result": "very few CD45+"}
    ]},
    {"molecule": "B1", "values": [
      {"measurement": "infiltration of lung metastases with T cells", "setting": "4T1 lung metastases", "result": "densely infiltrated with CD3 and CD8 T cells"},
      {"measurement": "lung metastases (number and size)", "setting": "4T1 lung metastases", "result": "fewer and much smaller lung metastases"},
      {"measurement": "plasmocytes penetration in tumors", "setting": "4T1 lung metastases", "result": "evidence of plasmocytes penetration"},
      {"measurement": "metastatic lung nodules / therapeutic effect on lung metastases", "setting": "[1]", "result": "less metastatic lung nodules"},
      {"measurement": "CD45+ immune cells in primary tumors", "setting": "4T1 primary tumors", "result": "more immune cells"},
      {"measurement": "INFγ", "setting": "4T1 tumor cells", "result": "8538.8 pg/mL and 3770.0 pg/mL and 4538.8 pg/mL"}
    ]}
  ]
}
